Patent publication US5776725, “Recombinant production of glucagon receptors” (ZymoGenetics, Inc., dated 1998)
Values belong to the molecule of their own block, whether it stands above or below them.

How the values were obtained:
[1] = molecular target: human glucagon receptor encoded by plasmid pLJ6' (human); test: in situ 125I-glucagon binding with emulsion autoradiography on pLJ6'-transfected COS 7 cells
[2] = molecular target: glucagon receptors of rat liver membrane preparations (rat) (UniProt P30082); test: Scatchard analysis of 125I-glucagon binding in competition with unlabeled glucagon, rat liver membranes
[3] = molecular target: rat glucagon receptor encoded by plasmid pLJ4 (rat)
[4] = molecular target: rat glucagon receptor encoded by plasmid pLJ4 (rat); test: Scatchard analysis of 125I-glucagon binding in competition with unlabeled glucagon, membranes of pLJ4 BHK transfectants
[5] = molecular target: rat glucagon receptor encoded by plasmid pLJ4 (rat); remark: listed apart in the source
[6] = molecular target: rat glucagon receptor encoded by plasmid pLJ4 (rat); remark: listed apart in the source
[7] = molecular target: rat glucagon receptor encoded by plasmid pLJ4 (rat); remark: listed apart in the source
[8] = molecular target: T1, bovine parathyroid hormone (PTH) (Sigma) (bovine, UniProt P01268); test: competition with 125I-glucagon, membranes of pLJ4 BHK transfectants
T1 sequence (peptide): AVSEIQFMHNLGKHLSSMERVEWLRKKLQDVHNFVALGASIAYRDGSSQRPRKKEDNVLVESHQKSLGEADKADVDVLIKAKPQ
Procedure: The binding reaction was initiated by the addition of 20 µl of a membrane preparation to the reaction tubes. The reactions were incubated for 30 minutes at 30° C. The membranes were pelleted by centrifugation in a microfuge at high speed for 10 minutes at 4° C. The supernatants from each sample were aspirated, and the pellets were counted.

percent of transfected cells that bound glucagon [1]: > 50%
Molecule: 125I-glucagon (Amersham receptor grade) (ligand)

Kd [2]: 49 nM | fold induction of luciferase (CRE-luciferase) [3]: 6 to 10 fold | Kd [4]: 50 nM | cAMP levels (Amersham SPA kit) [5]: 5 fold | intracellular calcium concentration (fura-2 photoimaging) [6]: 400 nM | ED50 of cAMP induction [7]: 0.25 nM | induction of cAMP levels (scintillation proximity radioimmunoassay) [7]: 140 fold
Molecule: glucagon (ligand)

binding result [8]: no binding (tested: 1 µM)
B1: rat glucagon receptor encoded by plasmid pLJ4 (receptor)
chain: AQVMDFLFEKWKLYSDQCHHNLSLLPPPTELVCNRTFDKYSCWPDTPPNTTANISCPWYLPWYHKVQHRLVFKRCGPDGQWVRGPRGQSWRDASQCQMDDDEIEVQKGVAKMYSSYQVMYTVGYSLSLGALLLALVILLGLRKLHCTRNYIHGNLFASFVLKAGSVLVIDWLLKTRYSQKIGDDLSVSVWLSDGAVAGCRVATVIMQYGIIANYCWLLVEGVYLYSLLSITTFSEKSFFSLYLCIGWGSPLLFVIPWVVVKCLFENVQCWTSNDNMGFWWILRIPVLLAILINFFIFVRIIHLLVAKLRAHQMHYADYKFRLARSTLTLIPLLGVHEVVFAFVTDEHAQGTLRSTKLFFDLFFSSFQGLLVAVLYCFLNKEVQAELLRRWRRWQEGKALQEERMASSHGSHMAPAGTCHGDPCEKLQLMSAGSSSGTGCEPSAKTSLASSLPRLADSPT
